Measurements reported in article PMC4475061.
Blank lines part the entries; values can stand above or below the substance they belong to.

How the values were obtained:
[1] = molecular target: CHMP1A (positive-control partner of the Gal4-CHMP1B constructs in the two-hybrid assay); test: yeast two-hybrid (β-galactosidase activity); settings: parent: est. 0.71; read off a plot
[2] = molecular target: IST1 MIM1 peptide (residues 344–366), fluorescently labeled (human); test: fluorescence polarisation; 250 pM Oregon Green 488-labeled IST1 peptides, twofold dilutions of ULK3 proteins; 25 mM Tris pH 7.2, 150 mM NaCl, 0.1 mg/mL BSA, 0.01% Tween-20, 1 mM DTT; 1:1 fit
[3] = molecular target: IST1 MIMs peptide (residues 316–366), fluorescently labeled (human); test: as above

Substance: CHMP1B WT fused to the Gal4 DNA-binding domain (from UniProt Q7LBR1) T178R; A181R; E184R
response [1]: 0.89

Substance: ULK3(MIT)2 M434D (from UniProt Q6PHR2 277-449) (domain or fragment)
fold reduction of binding against wild-type ULK3(MIT)2 [3]: > 100 fold

Substance: ULK3(MIT)2 V338D (from UniProt Q6PHR2 277-449) (domain or fragment)
fold reduction of binding against wild-type ULK3(MIT)2 [3]: < 2 fold

Now from value to substance:

Kd [2]: 770 nM
Substance: ULK3 MIT2 (residues 359–449) (from UniProt Q6PHR2 359-449) (domain or fragment)

Kd [3]: 200 nM
Substance: ULK3(MIT)2 (residues 277–449) (from UniProt Q6PHR2 277-449) (domain or fragment)
